Results: US20250154237A1 (A AND G PHARMACEUTICAL, published 2025)

B1: 10C8 (antibody, V domains shown)
VH: QVQLVQSGAEVKKPGASVKVSCKASGYTLTSYGISWVRQAPGQGLEWMGWISAYNGNTNYAQKLQGRVTMTTDTSTSTAYMELRSLRSDDTAVYYCARELLWFGELLSQYYYYGMDVWGQGTTVTVSS
VL: DIQMTQSPSTLSASVGDRVTITCRASQNISRWLAWYQQKPGKAPKLLIFRASSLETGVPSRFGGSGSGTEFTLTISSLQPDDFATYYCQQYNSYYTFGQGTRLEIK
notes: Fully human mAb from TC-mAb mouse hybridoma; also called mAb 10C8
B2: 14A6 (antibody, V domains shown)
VH: QVQLVESGGGVVQPGRSLRLSCAASGFTFSNYGMHWVRQAPGKGLEWVAVIWYDGSNKYYADSVKGRFTISRDNSKNTLYLQMNSLRAEDTAVYYCARGHSVSGGDYWGQGTLVTVSS
VL: DIQMTQSPSSLSASVGDRVTITCRASQSVNSFLNWYQQTPGKAPKLLIYAASSLQSGVPPRFSGSGSGTDFTLTISSLQPEDFATYYCQQSYSTPYTFGQGTKLEIN
notes: Fully human mAb from TC-mAb mouse hybridoma; also called mAb 14A6
B3: 16C11 (antibody, V domains shown)
VH: QVQLVESGGGVVQPGRSLRLSCAASGFTFSSYAMHWVRQAPGKGLEWVAVIWYDGSKKYNADSVKGRFTISRDNSKNTLYLQMNSLRAEDTAVYYCARDRGIGGDYWGQGTLVTVSS
VL: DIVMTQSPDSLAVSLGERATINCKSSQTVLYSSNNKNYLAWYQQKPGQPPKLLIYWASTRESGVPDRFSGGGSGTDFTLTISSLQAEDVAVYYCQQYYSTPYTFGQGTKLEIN
notes: Fully human mAb from TC-mAb mouse hybridoma; also called mAb 16C11
B4: 10B3 (antibody, V domains shown)
VH: QVQLVESGGGVVQPGRSLRLSCAASGFTLSGYGMHWVRQAPDKGLEWVAVIWYDGSDKNYADSVKGRFTISRDNSKNTLYLQMNSLRAEDTAVYYCARDRGAVAGDYWGQGTLVTVSS
VL: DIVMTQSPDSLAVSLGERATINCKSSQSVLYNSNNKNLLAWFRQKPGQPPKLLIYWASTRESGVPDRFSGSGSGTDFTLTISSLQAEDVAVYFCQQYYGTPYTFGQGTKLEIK
notes: Fully human mAb from TC-mAb mouse hybridoma; also called mAb 10B3

Target: T1, human recombinant his-tagged full-length progranulin (human, UniProt P28799 18-593)
T1 construct: mature; also called huPGRN; hu PGRN; not shown: his tag
T1 sequence (looked up): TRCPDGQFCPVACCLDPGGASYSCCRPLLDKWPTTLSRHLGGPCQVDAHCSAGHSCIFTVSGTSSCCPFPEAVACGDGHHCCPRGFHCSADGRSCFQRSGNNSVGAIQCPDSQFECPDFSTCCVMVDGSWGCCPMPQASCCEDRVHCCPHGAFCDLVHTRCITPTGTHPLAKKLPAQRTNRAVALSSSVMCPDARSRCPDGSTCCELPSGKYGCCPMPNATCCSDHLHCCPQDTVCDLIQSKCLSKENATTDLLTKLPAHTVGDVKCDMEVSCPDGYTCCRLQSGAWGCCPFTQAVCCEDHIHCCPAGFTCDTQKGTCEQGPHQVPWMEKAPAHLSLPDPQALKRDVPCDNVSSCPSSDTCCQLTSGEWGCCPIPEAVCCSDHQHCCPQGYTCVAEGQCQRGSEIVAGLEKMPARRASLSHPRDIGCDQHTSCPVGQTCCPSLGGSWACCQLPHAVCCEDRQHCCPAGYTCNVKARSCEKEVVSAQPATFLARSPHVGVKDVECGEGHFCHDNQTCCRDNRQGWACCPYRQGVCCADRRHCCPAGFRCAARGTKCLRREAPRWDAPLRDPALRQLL
Experiment: flow cytometry: progranulin binding to MDA-MB-231 cells with the antibody, % of hIgG control
Description: Progranulin Binding by Flow Cytometry. Binding assays were carried out on an […] Flow Cytometer using the instructions included therein. […] Out of the 45 mAbs assayed, 11 clones (shown in bold in Table 5) produced antibodies that were able to inhibit progranulin binding in a dose dependent fashion.

% Control [%]	Binder
55	B1
116	B2
60	B3
62	B4

Target: T1, human recombinant his-tagged …
Experiment: BLI OctetRed96, mAb captured on AHC sensors, huPGRN as analyte, 25 C
Set-up: Response: unit not given here
Description: Determination of Binding Affinity by Octet. OctetRed96 BLI technology was used to examine the binding characteristics of selected fully human antibodies to progranulin. The method is briefly described herein. Assays were performed at 25° C. Pre-conditioning of the pre hydrated (1 hr) anti-human Fc capture (AHC) sensors was performed by repeating 3 cycles of dipping sensors in regeneration buffer followed by neutralizing buffer (PBS). Anti-progranulin mAbs were captured at 20 μg/ml for 360 seconds on pre-conditioned biosensors. Sensors were then dipped in baseline buffer similar to the progranulin diluent (PBS). Sensors were then dipped into progranulin-containing wells as indicated for 420 seconds. The dissociation step was carried out in assay buffer (PBS) for 600 seconds. The KD was determined based on Kₒₙ and Koff using the experimental conditions described above.

Kd [nM]	Response	koff [s⁻¹]	kon [M⁻¹ s⁻¹]	Binder
0.00413	0.89	5.38e-07	130000	B1
0.587	0.64	2.95e-05	50300	B2
0.476	0.932	7.21e-05	152000	B3
0.136	0.797	1.19e-05	86800	B4
